In assay [1] the target is KDR (full-length receptor) expressed on transiently transfected 293H cells (human) (UniProt P35968). Briefly: competition with 300 pM 125I-VEGF on KDR-transfected 293H cells; peptide 30 µM.
Assay [2] has as its target KDR on human umbilical vein endothelial cells (HUVECs) (human, UniProt P35968 20-1356). In words: cell-based or functional assay.
Assay [3] concerns the target KDR (full-length receptor) expressed on transiently transfected 293H cells (human) (UniProt P35968). Briefly: competition with 300 pM 125I-VEGF on KDR-transfected 293H cells; peptide 0.3 µM.
A further assay has as its target Soluble KDR receptor (UniProt P35968 20-764, limits assumed). Briefly: SPR (Biacore 3000), soluble KDR on CM5.

*1 amine or outer side, *2 acyl side, *3 side chain or, on linkers, in order; H or OH if unused. Bridges are numbered along the chain shown (N, C = ends). Roman numbers before positions name the chains, in order. Primed or numbered codes have the meaning given here. Where no end group is shown, it is not given here. Side-chain parts run from the residue outwards. The star is where a group is joined. ivDde′ = (4,4-dimethyl-2,6-dioxocyclohex-1-ylidene)-3-methylbutyl protecting group, CC(C)CC(=C1C(=O)CC(C)(C)CC1=O)*; Biotin = O=C1N[C@H]2[C@H](CS[C@H]2CCCCC(=O)*)N1; Glutaryl = O=C(CCCC(=O)[*:2])[*:1]; AEEA = NCCOCCOCC(=O)O

Chain of KDR on human umbilical vein endothelial cells (HUVECs) (P35968 20-1356): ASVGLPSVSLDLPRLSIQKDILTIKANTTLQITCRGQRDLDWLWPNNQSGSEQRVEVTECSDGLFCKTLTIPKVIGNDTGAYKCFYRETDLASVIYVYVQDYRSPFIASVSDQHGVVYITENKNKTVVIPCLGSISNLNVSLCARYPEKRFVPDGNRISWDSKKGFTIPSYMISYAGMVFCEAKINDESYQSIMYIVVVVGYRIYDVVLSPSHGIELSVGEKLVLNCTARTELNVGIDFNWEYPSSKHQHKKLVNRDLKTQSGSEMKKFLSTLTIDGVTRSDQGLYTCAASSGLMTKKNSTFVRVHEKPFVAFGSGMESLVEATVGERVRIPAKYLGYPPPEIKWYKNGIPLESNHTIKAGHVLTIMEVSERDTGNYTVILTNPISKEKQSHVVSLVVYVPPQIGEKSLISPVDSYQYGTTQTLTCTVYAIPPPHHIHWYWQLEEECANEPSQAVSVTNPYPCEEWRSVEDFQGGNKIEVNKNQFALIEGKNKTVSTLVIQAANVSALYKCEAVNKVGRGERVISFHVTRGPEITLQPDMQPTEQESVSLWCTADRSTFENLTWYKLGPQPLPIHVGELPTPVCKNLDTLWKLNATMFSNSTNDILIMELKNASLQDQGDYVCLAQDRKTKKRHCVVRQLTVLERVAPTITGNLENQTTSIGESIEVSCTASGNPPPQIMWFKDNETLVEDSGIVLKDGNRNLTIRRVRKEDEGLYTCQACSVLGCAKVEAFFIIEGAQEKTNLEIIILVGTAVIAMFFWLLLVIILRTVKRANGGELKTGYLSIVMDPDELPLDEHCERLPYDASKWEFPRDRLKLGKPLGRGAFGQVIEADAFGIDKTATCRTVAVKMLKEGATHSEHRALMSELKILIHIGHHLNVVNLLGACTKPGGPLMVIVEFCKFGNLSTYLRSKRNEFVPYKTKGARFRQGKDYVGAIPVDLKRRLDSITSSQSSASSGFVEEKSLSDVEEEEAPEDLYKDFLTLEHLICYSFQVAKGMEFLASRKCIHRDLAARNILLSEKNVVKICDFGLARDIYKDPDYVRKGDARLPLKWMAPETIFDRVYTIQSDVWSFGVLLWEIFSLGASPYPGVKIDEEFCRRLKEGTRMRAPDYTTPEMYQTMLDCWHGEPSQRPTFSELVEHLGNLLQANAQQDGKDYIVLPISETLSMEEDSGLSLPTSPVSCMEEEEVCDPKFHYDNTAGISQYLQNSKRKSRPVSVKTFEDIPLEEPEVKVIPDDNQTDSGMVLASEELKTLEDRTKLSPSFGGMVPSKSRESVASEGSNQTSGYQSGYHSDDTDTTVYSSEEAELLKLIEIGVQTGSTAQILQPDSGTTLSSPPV
Chain of KDR (full-length receptor) expressed on transiently transfected 293H cells (human) (P35968 20-1356): as above
Chain of Soluble KDR receptor (P35968 20-764 limits assumed): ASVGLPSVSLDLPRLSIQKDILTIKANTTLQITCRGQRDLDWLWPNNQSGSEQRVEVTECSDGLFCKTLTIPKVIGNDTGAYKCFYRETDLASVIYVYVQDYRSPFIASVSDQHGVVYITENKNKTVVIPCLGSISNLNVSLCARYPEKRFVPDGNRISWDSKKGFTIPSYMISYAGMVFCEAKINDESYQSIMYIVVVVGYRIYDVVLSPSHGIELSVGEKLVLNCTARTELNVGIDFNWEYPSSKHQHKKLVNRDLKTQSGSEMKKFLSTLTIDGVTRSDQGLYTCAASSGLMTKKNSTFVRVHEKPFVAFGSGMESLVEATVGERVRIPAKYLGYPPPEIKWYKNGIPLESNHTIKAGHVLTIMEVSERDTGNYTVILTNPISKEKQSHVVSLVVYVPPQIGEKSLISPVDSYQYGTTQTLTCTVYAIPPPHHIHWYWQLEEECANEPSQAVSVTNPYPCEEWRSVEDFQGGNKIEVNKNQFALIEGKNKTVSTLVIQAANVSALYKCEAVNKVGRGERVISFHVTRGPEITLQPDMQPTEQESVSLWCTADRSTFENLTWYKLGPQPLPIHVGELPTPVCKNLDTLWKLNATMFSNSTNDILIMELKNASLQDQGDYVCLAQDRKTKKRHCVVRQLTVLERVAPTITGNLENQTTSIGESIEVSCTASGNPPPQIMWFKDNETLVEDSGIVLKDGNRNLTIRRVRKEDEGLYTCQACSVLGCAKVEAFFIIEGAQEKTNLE

B1: P12-XB (peptide)
peptide: Ac-AGPTWCEDDWYYCWLFGTGGGK([AEEA-AEEA-Biotin])-NH2
modifications: disulfide 6-13
SMILES: CC(=O)N[C@@H](C)C(=O)NCC(=O)N1CCC[C@H]1C(=O)N[C@H](C(=O)N[C@@H](Cc1c[nH]c2ccccc12)C(=O)N[C@H]1CSSC[C@@H](C(=O)N[C@@H](Cc2c[nH]c3ccccc23)C(=O)N[C@@H](CC(C)C)C(=O)N[C@@H](Cc2ccccc2)C(=O)NCC(=O)N[C@H](C(=O)NCC(=O)NCC(=O)NCC(=O)N[C@@H](CCCCNC(=O)COCCOCCNC(=O)COCCOCCNC(=O)CCCC[C@@H]2SC[C@@H]3NC(=O)N[C@@H]32)C(N)=O)[C@@H](C)O)NC(=O)[C@H](Cc2ccc(O)cc2)NC(=O)[C@H](Cc2ccc(O)cc2)NC(=O)[C@H](Cc2c[nH]c3ccccc23)NC(=O)[C@H](CC(=O)O)NC(=O)[C@H](CC(=O)O)NC(=O)[C@H](CCC(=O)O)NC1=O)[C@@H](C)O
B1: the % inhibition of 125I-VEGF binding was found to be 104% in assay [1] and 81% in assay [3]. For the same molecule, the “IC50, receptor activation assay” value in assay [2] was 0.1 µM.

B2: D1 (peptide)
peptide 1: AGPTWCEDDWYYCWLFGTGGGK
peptide 2: VCWEDSWGGEVCFRYDPGGGK
modifications: linker (positions not given here) via Glutaryl; disulfide I:6-I:13, II:2-II:12; also: two chains linked by a glutaryl linker, exact groups only in a drawing
B2: the “IC50, receptor activation assay” value in assay [2] lay in the range of 0.0005 to 0.001 µM.

B3: P7-E (peptide)
peptide: Ac-GDWWECK(ivDde′)REEYRNTTWCAWADPGGGK-NH2
modifications: disulfide 6-17
SMILES: CC(=O)NCC(=O)N[C@@H](CC(=O)O)C(=O)N[C@@H](Cc1c[nH]c2ccccc12)C(=O)N[C@@H](Cc1c[nH]c2ccccc12)C(=O)N[C@@H](CCC(=O)O)C(=O)N[C@H]1CSSC[C@@H](C(=O)N[C@@H](C)C(=O)N[C@@H](Cc2c[nH]c3ccccc23)C(=O)N[C@@H](C)C(=O)N[C@@H](CC(=O)O)C(=O)N2CCC[C@H]2C(=O)NCC(=O)NCC(=O)NCC(=O)N[C@@H](CCCCN)C(N)=O)NC(=O)[C@H](Cc2c[nH]c3ccccc23)NC(=O)[C@H]([C@@H](C)O)NC(=O)[C@H]([C@@H](C)O)NC(=O)[C@H](CC(N)=O)NC(=O)[C@H](CCCNC(=N)N)NC(=O)[C@H](Cc2ccc(O)cc2)NC(=O)[C@H](CCC(=O)O)NC(=O)[C@H](CCC(=O)O)NC(=O)[C@H](CCCNC(=N)N)NC(=O)[C@H](CCCCNC(CC(C)C)=C2C(=O)CC(C)(C)CC2=O)NC1=O
With B3, in assay [2], the “inhibition of VEGF-induced KDR phosphorylation” value is at least 50 % inhibition at 10 µM.

B4: Head-to-head dimer (P9/P10 heterodimer) (peptide)
peptide 1: AQEPEGYAYWEVITLYHEEDGDGG
peptide 2: AQAFPRFGGDDYWIQQYLRYTDGG
modifications: bridge I:N-II:N; not fully specified (N-terminus); also: head-to-head heterodimer, N-termini joined by oxime
notes: also called H-H dimer
B4: the “fold increase in affinity over P10” value in the assay with Soluble KDR receptor is above 560 fold.
In the case of Ac-AQGDYVYWEIIELTGATDHTPPGGGK-NH2 [P11-D], the “inhibition of VEGF-induced KDR phosphorylation” value in assay [2] was at least 50 % inhibition at 10 µM.

B5: P8-D (peptide)
peptide: Ac-GDPDTCTMWGDSGRWYCFPADPGGGK-NH2
modifications: disulfide 6-17
SMILES: CSCC[C@@H]1NC(=O)[C@H]([C@@H](C)O)NC(=O)[C@@H](NC(=O)[C@@H](NC(=O)[C@H](CC(=O)O)NC(=O)[C@@H]2CCCN2C(=O)[C@H](CC(=O)O)NC(=O)CNC(C)=O)[C@@H](C)O)CSSC[C@@H](C(=O)N[C@@H](Cc2ccccc2)C(=O)N2CCC[C@H]2C(=O)N[C@@H](C)C(=O)N[C@@H](CC(=O)O)C(=O)N2CCC[C@H]2C(=O)NCC(=O)NCC(=O)NCC(=O)N[C@@H](CCCCN)C(N)=O)NC(=O)[C@H](Cc2ccc(O)cc2)NC(=O)[C@H](Cc2c[nH]c3ccccc23)NC(=O)[C@H](CCCNC(=N)N)NC(=O)CNC(=O)[C@H](CO)NC(=O)[C@H](CC(=O)O)NC(=O)CNC(=O)[C@H](Cc2c[nH]c3ccccc23)NC1=O
Regarding B5, the “inhibition of VEGF-induced KDR phosphorylation” value in assay [2] was at least 50 % inhibition at 10 µM.

B6: P3-D (peptide)
peptide: Ac-AGWLECYAEFGHCYNFGTGGGK-NH2
modifications: disulfide 6-13
SMILES: CC(=O)N[C@@H](C)C(=O)NCC(=O)N[C@@H](Cc1c[nH]c2ccccc12)C(=O)N[C@@H](CC(C)C)C(=O)N[C@@H](CCC(=O)O)C(=O)N[C@H]1CSSC[C@@H](C(=O)N[C@@H](Cc2ccc(O)cc2)C(=O)N[C@@H](CC(N)=O)C(=O)N[C@@H](Cc2ccccc2)C(=O)NCC(=O)N[C@H](C(=O)NCC(=O)NCC(=O)NCC(=O)N[C@@H](CCCCN)C(N)=O)[C@@H](C)O)NC(=O)[C@H](Cc2c[nH]cn2)NC(=O)CNC(=O)[C@H](Cc2ccccc2)NC(=O)[C@H](CCC(=O)O)NC(=O)[C@H](C)NC(=O)[C@H](Cc2ccc(O)cc2)NC1=O
As for B6, the “inhibition of VEGF-induced KDR phosphorylation” value in assay [2] was at least 50 % inhibition at 10 µM.
Turning to GDSRVCWEDSWGGEVCFRYDP [P6], the % inhibition of 125I-VEGF binding came out at 96.3% in assay [1] and 52.3% in assay [3].

For the origin of these results see patent EP1482987B1 (Bracco Suisse SA, dated 2014).
